What was measured:
[1] = target: T1, cynomolgus monkey PD1, membrane-expressed on CHO-K1 stable cell line (cynomolgus monkey, UniProt Q15116 25-288 (human entry)); experiment: flow cytometry on CHO cells stably transfected with cyno PD1 (reference antibody)
T1 construct: Genscript cell line M00572; also called membrane-presented cyno PD1
T1 chain: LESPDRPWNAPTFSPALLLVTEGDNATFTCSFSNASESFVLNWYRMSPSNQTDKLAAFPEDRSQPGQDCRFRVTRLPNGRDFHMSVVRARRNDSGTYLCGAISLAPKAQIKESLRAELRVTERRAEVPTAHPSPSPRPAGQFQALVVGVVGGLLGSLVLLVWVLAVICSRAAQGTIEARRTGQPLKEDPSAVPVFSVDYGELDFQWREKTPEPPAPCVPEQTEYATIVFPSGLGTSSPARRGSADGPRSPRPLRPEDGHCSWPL
Description: The IgG samples were titrated in three-fold serial dilutions starting at 500 nM to 0.98 nM. Binding of IgGs was detected with a mouse anti-human IgG conjugated to FITC. Results were analyzed by examining the Mean Fluorescence Intensity (MFI) of 10000 cells per sample in the BL-1 channel detector of a flow cytometer (Attune™ NxT Acoustic Focusing Cytometer, Invitrogen/ThermoFisher Scientific).
Antibodies to PD1 were analysed for concentration-dependent binding at the cell surface via flow cytometry. Initial analyses were performed on CHO cells stably-transfected with human or cyno PD1.

[2] = target: T2, human LSAMP, expressed on HEK293 cells (human, UniProt Q13449 29-315); experiment: flow cytometry on transfected HEK293 cells, 2 ug/ml IgG
T2 construct: also called BC033803
T2 sequence: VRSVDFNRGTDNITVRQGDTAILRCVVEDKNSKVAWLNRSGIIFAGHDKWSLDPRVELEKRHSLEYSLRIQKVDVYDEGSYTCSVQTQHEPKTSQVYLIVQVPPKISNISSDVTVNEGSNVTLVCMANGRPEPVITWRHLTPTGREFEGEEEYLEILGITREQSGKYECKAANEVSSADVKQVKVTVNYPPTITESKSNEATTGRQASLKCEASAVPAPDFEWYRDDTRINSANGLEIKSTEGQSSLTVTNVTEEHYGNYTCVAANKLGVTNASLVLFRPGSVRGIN
Description: (§1) FIG. 11. […] Analyses of binding specificity were performed on HEK293 cells transiently transfected with plasmids encoding either human PD1, human BTN2A1, human LSAMP, human CD20 or ZS green marker only. Each antibody was used in staining at […] concentration and histograms are indicated per antibody in this figure.
(§2) Human cell membrane receptor proteome arrays were performed at Retrogenix Ltd. Primary screens: 2 μg/ml of each antibody was screened for binding against fixed HEK293 cells/slides expressing 5528 human plasma membrane and tethered secreted proteins individually. […] Antibody binding was detected using AF647 fluorescent secondary anti-human IgG1 antibody. Primary hits (duplicate spots) were identified by analysing fluorescence (AF647 and ZsGreen1) on ImageQuant. Confirmation/specificity screens: Expression vectors encoding ZsGreen1 only, or ZsGreen1 and CD20, PD1, BTN2A1, or LSAMP were transfected into human HEK293 cells. […] Cells were washed, and incubated with the same AF647 anti-human IgG Fc detection antibody as used in the cell microarray screens. Cells were again washed, and analysed by flow cytometry using an Accuri flow cytometer (BD). A 7AAD live/dead dye was used to exclude dead cells, and ZsGreen1-positive cells (i.e. transfected cells) were selected for analyses.

[3] = target: T3, human CD20, expressed on HEK293 cells (human, UniProt P11836 1-297); experiment: as above
T3 construct: whole, on cells
T3 sequence (looked up): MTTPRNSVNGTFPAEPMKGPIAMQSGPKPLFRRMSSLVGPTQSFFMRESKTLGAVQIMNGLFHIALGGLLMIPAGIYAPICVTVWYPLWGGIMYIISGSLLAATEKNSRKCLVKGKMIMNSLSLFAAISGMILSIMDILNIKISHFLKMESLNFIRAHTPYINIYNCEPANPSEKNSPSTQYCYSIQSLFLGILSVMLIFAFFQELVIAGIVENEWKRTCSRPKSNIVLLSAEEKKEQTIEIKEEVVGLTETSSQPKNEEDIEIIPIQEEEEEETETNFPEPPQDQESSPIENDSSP
Description: as §1, §2

[4] = target: T4, human BTN2A1, expressed on HEK293 cells (human, UniProt Q7KYR7 29-527); experiment: as above
T4 construct: also called NM_007049
T4 sequence: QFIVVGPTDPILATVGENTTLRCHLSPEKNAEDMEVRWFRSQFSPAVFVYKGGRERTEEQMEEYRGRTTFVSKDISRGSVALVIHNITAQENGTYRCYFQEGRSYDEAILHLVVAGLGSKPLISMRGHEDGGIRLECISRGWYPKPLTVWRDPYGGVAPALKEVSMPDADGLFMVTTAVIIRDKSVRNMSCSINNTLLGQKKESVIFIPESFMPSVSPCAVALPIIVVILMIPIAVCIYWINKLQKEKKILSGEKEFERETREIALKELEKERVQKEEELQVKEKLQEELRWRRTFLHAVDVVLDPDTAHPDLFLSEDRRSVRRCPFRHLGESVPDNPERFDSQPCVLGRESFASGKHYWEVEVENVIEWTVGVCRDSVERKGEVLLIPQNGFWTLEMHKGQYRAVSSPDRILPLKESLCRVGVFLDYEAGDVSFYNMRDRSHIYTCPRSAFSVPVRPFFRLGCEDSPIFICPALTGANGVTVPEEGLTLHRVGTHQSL
Description: as §1, §2

[5] = target: T2, human LSAMP, expressed on HEK293 cells; experiment: flow cytometry on live transfected HEK293 cells
Description: as §1, §2

[6] = target: T3, human CD20, expressed on HEK293 cells; experiment: flow cytometry on live transfected HEK293 cells
Description: as §1, §2

[7] = target: T4, human BTN2A1, expressed on HEK293 cells; experiment: Retrogenix cell microarray, fixed HEK293 cells
Description: as §2

[8] = target: T5, human PD1, membrane-expressed on transfected cells (CHO-K1 stable line, HEK293 transfectants, PD1 effector … (human, UniProt Q15116 25-288)); experiment: Retrogenix cell microarray, fixed HEK293 cells, 2 ug/ml IgG
T5 construct: also called PD1 (PDCD1) NM_005018; membrane-presented human PD1
T5 sequence (Q15116 25-288 limits assumed): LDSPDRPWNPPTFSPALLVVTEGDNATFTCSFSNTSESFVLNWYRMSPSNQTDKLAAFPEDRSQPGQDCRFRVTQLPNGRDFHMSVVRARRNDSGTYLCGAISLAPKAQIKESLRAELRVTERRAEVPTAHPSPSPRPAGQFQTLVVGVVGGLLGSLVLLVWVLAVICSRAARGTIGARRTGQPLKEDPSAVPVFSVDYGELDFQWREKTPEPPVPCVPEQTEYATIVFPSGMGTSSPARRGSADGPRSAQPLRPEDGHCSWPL

- binding result [1]: binds
- fold fluorescence change versus mock (ZSgreen only) cells [2]: 1.5 fold
- fold fluorescence change versus mock (ZSgreen only) cells [3]: 1.4 fold
- fold fluorescence change versus mock (ZSgreen only) cells [4]: 1.2 fold
- binding result [5]: no binding (tested: 2 ug/ml)
- binding result [6]: no binding (tested: 2 ug/ml)
- binding result [7]: no binding (tested: 2 ug/ml)
- binding result [8]: binds
B1: Hu317 humanized anti-PD1 antibody, IgG1null format (antibody, V domains shown)
VH: QVQLQESGPGLVKPSETLSLTCTVSGFSLTSYGVHWIRQPPGKGLEWIGVIYADGSTNYNPSLKSRVTISKDTSKNQVSLKLSSVTAADTAVYYCARAYGNYWYIDVWGQGTTVTVSS
VL: DIVMTQSPDSLAVSLGERATINCKSSESVSNDVAWYQQKPGQPPKLLINYAFHRFTGVPDRFSGSGYGTDFTLTISSLQAEDVAVYYCHQAYSSPYTFGQGTKLEIK
notes: Tested as IgG1null (human IgG1 L234A, L235A, G237A) with human Ckappa; also called hu317 IgG1
